# The supplement of paper PMC10567573
# B1: ATL3 (parent)
# chain: EKALASILLQDHIRDLDVVVVSVA
# B2: INTS4 (parent)
# chain: AKQIMEETYKMEFMYSGVENKQVV
# Variants of: B1
# Assay: protein stability index of a GFP-peptide fusion (GPS, HEK-293T) (PSI 1-6); higher = more stable
# Settings: c terminus: a fixed tail appended
# 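Also: lentivirally expressed fusions sorted by FACS into six bins by GFP to DsRed ratio, PSI derived from sequencing read proportions per bin multiplied by bin number.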
row,Variant,protein stability index
1,V18I,2.02
2,V18T,3.46
3,V18P,2.34
4,V18N,2
5,V18C,1.66
6,V18E,2.48
7,V18Y,3.61
8,V18K,2.27
9,V18D,2.74
10,V18H,1.06
11,V18Q,1.59
12,R14L,3.36
13,R14K,3.11
14,R14W,3.58
15,R14T,1.49
16,R14F,3.13
17,R14P,1.55
18,R14D,2.15
19,R14N,3.67
20,A24G,2.39
21,A24N,2.01
22,A24M,1.8
23,A24P,2.53
24,A24C,4.82
25,L16P,1.57
26,L16Q,1.37

row,Variant,protein stability index
1,L16A,1.31
2,L16N,1.46
3,L16K,1.23
4,L16S,2.37
5,L16D,1.67
6,L16R,1.03
7,D17Q,1.93
8,D17P,2.93
9,D17A,3.11
10,D17I,1.36
11,D17Y,3.45
12,D17M,2.05
13,S22L,2.02
14,S22D,2.35
15,S22R,2.97
16,S22G,1.07
17,S22P,1.91
18,S22E,2.86
19,S22H,1.84
20,V21Q,2.6
21,V21A,1.16
22,V21T,1.62
23,V21I,2.63
24,V21S,1.81
25,V21R,3.63
26,V21C,2.07

row,Variant,protein stability index
1,V21D,3.39
2,V21H,1.51
3,V21P,2.56
4,V21Y,1.75
5,V21N,2.16
6,V20H,2.18
7,V20N,3.1
8,V20A,1.58
9,V20T,1.89
10,V20K,2.79
11,V20P,3.2
12,V20M,1.82
13,V20D,2.79
14,V20Q,2.1
15,V20E,2.89
16,V20R,2.2
17,V20L,3.35
18,V20W,3.67
19,V20Y,2.34
20,H12T,2.26
21,D15W,2.5
22,D15V,2.55
23,D15I,2.33
24,V19S,2.01
25,V19Q,1.42
26,V19R,2.19

row,Variant,protein stability index
1,V19N,1.72
2,V19D,3.81
3,V19C,4.35
4,V19P,2.52
5,V19A,1.64
6,V19H,2.29
7,V19K,1.96
8,V19G,2.25
9,I13S,1.26
10,I13D,3.12
11,I13T,3.04
12,I13Y,3.9
13,V23H,1.19
14,V23R,1.41
15,V23F,3.83
16,V23G,3.31
17,V23K,2.38
18,V23Q,1.96
19,V23S,3.22
20,V23P,2.45
21,V23A,2.21
22,V23D,3.01
23,V23N,2.32
24,V23L,2.76

# Variants of: B2
# Assay: as above
# Settings: c terminus: a fixed tail appended
row,Variant,protein stability index
1,E7I,2.35
2,E7H,1.7
3,E7W,3.34
4,E7D,1.68
5,E7T,1.96
6,E7C,1.71
7,E7Y,2.21
8,E7L,1.38
9,E7M,1.5
10,E7N,1.9
11,E7S,1.67
12,E7P,2.93
13,E7Q,1.86
14,E7G,2.1
15,E7K,2.55
16,E7R,2.55
17,E7V,2.97
18,E7A,2.04
19,F13K,3.12
20,F13H,4.01
21,F13N,4.04
22,F13Q,3.12
23,F13M,1.86
24,F13R,3.52

row,Variant,protein stability index
1,F13L,2.26
2,F13E,4.3
3,F13D,4.6
4,F13C,2.96
5,F13P,3.66
6,F13A,4.23
7,F13S,4.24
8,F13G,3.94
9,M5F,1.79
10,M5I,1.08
11,M5L,4.9
12,M5R,2.87
13,M5A,3.14
14,M5E,3.67
15,M5C,2.87
16,M5V,2.2
17,M5S,3.08
18,M5K,3.05
19,M5Q,3.25
20,M5P,2.54
21,M5G,3.53
22,M5Y,2.71
23,M5T,2.98
24,M5H,2.76

row,Variant,protein stability index
1,M5D,3.99
2,M5W,2.11
3,M5N,3.75
4,Y9T,3.87
5,Y9C,2.31
6,Y9D,3.83
7,Y9F,2.26
8,Y9A,3.9
9,Y9P,3.78
10,Y9R,3.84
11,Y9W,2.18
12,Y9I,2.02
13,Y9N,4.24
14,Y9V,3.1
15,Y9G,3.84
16,Y9M,3.43
17,Y9H,3.61
18,Y9Q,4.41
19,Y9E,4.34
20,Y9L,2.67
21,Y9S,3.9
22,Y9K,3.57
23,Q3G,3.49
24,Q3N,1.68

row,Variant,protein stability index
1,Q3P,2.85
2,Q3K,1.96
3,Q3I,2.17
4,Q3H,1.69
5,Q3A,2.15
6,Q3F,1.97
7,Q3W,2.53
8,Q3T,1.85
9,Q3Y,1.84
10,Q3E,2.3
11,Q3S,2.35
12,Q3L,1.75
13,Q3R,1.7
14,Q3D,2.26
15,Q3C,1.42
16,Q3M,1.51
17,T8S,2.39
18,T8E,2.69
19,T8C,1.52
20,T8N,2.42
21,T8L,2.67
22,T8A,1.63
23,T8Q,2.19
24,T8H,2.54

row,Variant,protein stability index
1,T8R,1.84
2,T8Y,1.92
3,T8K,2.85
4,T8F,1.64
5,T8W,2.71
6,T8V,1.89
7,T8I,1.28
8,T8G,1.41
9,T8P,3.46
10,K10H,1.25
11,K10W,1.96
12,K10I,1.92
13,K10R,3.13
14,K10C,1.6
15,K10L,1.96
16,K10E,3.15
17,K10Y,2.14
18,K10Q,1.67
19,K10S,1.81
20,K10G,2.48
21,K10P,3.79
22,K10M,1.99
23,K10A,1.91
24,K10T,1.43

row,Variant,protein stability index
1,K10F,1.13
2,K10V,2.64
3,K10D,3.55
4,K10N,1.32
5,E12N,1.81
6,E12M,2.43
7,E12F,1.95
8,E12Y,2.44
9,E12C,1.6
10,E12P,3.16
11,E12R,2.34
12,E12G,2.66
13,E12S,1.61
14,E12H,2.32
15,E12D,2.18
16,E12T,2.33
17,E12A,2.97
18,E12Q,2.42
19,E12V,1.06
20,E12K,1.59
21,E12W,2.48
22,E6C,1.73
23,E6Y,1.61
24,E6H,2.21

row,Variant,protein stability index
1,E6M,3.07
2,E6W,2.12
3,E6N,2.12
4,E6R,2.48
5,E6D,3.17
6,E6T,1.76
7,E6K,1.89
8,E6A,2.25
9,E6I,2.61
10,E6G,3.01
11,E6P,2.16
12,E6V,2.54
13,E6F,2.01
14,E6S,2.47
15,E6Q,1.77
16,A1P,3.02
17,A1W,2.44
18,A1S,2.82
19,A1H,2.72
20,A1R,2.69
21,A1E,3.37
22,A1F,1.04
23,A1I,1.42
24,A1M,1.34

row,Variant,protein stability index
1,A1K,2.68
2,A1N,2.1
3,A1V,2.07
4,A1Q,2.52
5,A1D,3.46
6,A1Y,2.1
7,A1T,2.8
8,A1C,1.86
9,A1G,2.39
10,A1L,2.44
11,I4H,2.04
12,I4F,3
13,I4D,2.92
14,I4G,2.89
15,I4C,2.6
16,I4L,1.35
17,I4P,3.39
18,I4N,2.58
19,I4V,2.42
20,I4Q,2.3
21,I4R,2.07
22,I4A,2.39
23,I4M,1.9
24,I4S,2.99

row,Variant,protein stability index
1,I4K,2.38
2,I4T,2.9
3,I4Y,2.48
4,I4E,3.46
5,M11Q,3.2
6,M11N,3.98
7,M11V,1.9
8,M11P,3.85
9,M11A,1.42
10,M11H,3.56
11,M11S,2.37
12,M11W,2.22
13,M11E,3.9
14,M11F,2.26
15,M11I,3.35
16,M11Y,2.68
17,M11K,3.44
18,M11C,2.43
19,M11G,3.28
20,M11D,4.33
21,M11T,2.9
22,M11R,3.42
23,K2D,3.15
24,K2H,3.23

row,Variant,protein stability index
1,K2V,2.04
2,K2W,3.22
3,K2L,2.62
4,K2I,2.81
5,K2G,3.06
6,K2F,2.51
7,K2A,1.89
8,K2Y,1.87
9,K2R,1.4
10,K2S,2.44
11,K2Q,2.27
12,K2T,2.54
13,K2C,2.23
14,K2N,3.62
15,K2E,3.43
16,K2P,2.62
